Results: patent US20210340238A1 (SCHOLAR ROCK, published 2021)

Tests used:
[1] = molecular target: T1, recombinant human GARP-proTGFβ1 complex (human, UniProt Q14392 20-627; P01137 30-390, limits assumed); experiment: MSD-SET; IgG4 from mammalian cells
T1 construct: Purified complex of the Octet and MSD-SET assays, biotinylated; also called hGARP; hGARP-proTGFβ1

[2] = molecular target: T2, recombinant human LRRC33-proTGFβ1 complex (human, UniProt Q86YC3 19-650; P01137 30-390, limits assumed); experiment: MSD-SET; IgG4 from mammalian cells
T2 construct: Purified complex of the Octet and MSD-SET assays, biotinylated; also called hLRRC33; hLRRC33-proTGFβ1

[3] = molecular target: T3, recombinant human LTBP3-proTGFβ1 complex (human, UniProt Q9NS15 44-1303; P01137 30-390, limits assumed); experiment: MSD-SET; IgG4 from mammalian cells
T3 construct: Biotinylated in the Octet and MSD-SET assays; In the potency assay it was made by cells transfected with human LTBP3 and proTGFβ1 plasmids and deposited in the ECM; also called hLTBP3; hLTBP3-proTGFβ1

[4] = molecular target: T4, recombinant human LTBP1-proTGFβ1 complex (human, UniProt Q14766 347-1721; P01137 30-390); experiment: MSD-SET; IgG4 from mammalian cells
T4 construct: Biotinylated in the Octet and MSD-SET assays; In the potency assay it was made by cells transfected with human LTBP1S and proTGFβ1 plasmids and deposited in the ECM; also called hLTBP1; hLTBP1-proTGFβ1

[5] = molecular target: human GARP-proTGFβ1 complex presented on the cell surface (human, UniProt Q14392 20-662; P01137 30-390); experiment: cell-based or functional assay
[6] = molecular target: human LRRC33-proTGFβ1 complex presented on the cell surface (human, UniProt Q86YC3 19-692; P01137 30-390); experiment: cell-based or functional assay
[7] = molecular target: T3, recombinant human LTBP3-proTGFβ1 complex; experiment: cell-based or functional assay
[8] = molecular target: T4, recombinant human LTBP1-proTGFβ1 complex; experiment: cell-based or functional assay
[9] = molecular target: T1, recombinant human GARP-proTGFβ1 complex; experiment: Octet (BLI); IgG1 from yeast
[10] = molecular target: T2, recombinant human LRRC33-proTGFβ1 …; experiment: Octet (BLI); IgG1 from yeast
[11] = molecular target: T3, recombinant human LTBP3-proTGFβ1 complex; experiment: Octet (BLI); IgG1 from yeast
[12] = molecular target: T4, recombinant human LTBP1-proTGFβ1 complex; experiment: Octet (BLI); IgG1 from yeast

T4 sequence (Q14766 347-1721 limits assumed, chain 1 of 2): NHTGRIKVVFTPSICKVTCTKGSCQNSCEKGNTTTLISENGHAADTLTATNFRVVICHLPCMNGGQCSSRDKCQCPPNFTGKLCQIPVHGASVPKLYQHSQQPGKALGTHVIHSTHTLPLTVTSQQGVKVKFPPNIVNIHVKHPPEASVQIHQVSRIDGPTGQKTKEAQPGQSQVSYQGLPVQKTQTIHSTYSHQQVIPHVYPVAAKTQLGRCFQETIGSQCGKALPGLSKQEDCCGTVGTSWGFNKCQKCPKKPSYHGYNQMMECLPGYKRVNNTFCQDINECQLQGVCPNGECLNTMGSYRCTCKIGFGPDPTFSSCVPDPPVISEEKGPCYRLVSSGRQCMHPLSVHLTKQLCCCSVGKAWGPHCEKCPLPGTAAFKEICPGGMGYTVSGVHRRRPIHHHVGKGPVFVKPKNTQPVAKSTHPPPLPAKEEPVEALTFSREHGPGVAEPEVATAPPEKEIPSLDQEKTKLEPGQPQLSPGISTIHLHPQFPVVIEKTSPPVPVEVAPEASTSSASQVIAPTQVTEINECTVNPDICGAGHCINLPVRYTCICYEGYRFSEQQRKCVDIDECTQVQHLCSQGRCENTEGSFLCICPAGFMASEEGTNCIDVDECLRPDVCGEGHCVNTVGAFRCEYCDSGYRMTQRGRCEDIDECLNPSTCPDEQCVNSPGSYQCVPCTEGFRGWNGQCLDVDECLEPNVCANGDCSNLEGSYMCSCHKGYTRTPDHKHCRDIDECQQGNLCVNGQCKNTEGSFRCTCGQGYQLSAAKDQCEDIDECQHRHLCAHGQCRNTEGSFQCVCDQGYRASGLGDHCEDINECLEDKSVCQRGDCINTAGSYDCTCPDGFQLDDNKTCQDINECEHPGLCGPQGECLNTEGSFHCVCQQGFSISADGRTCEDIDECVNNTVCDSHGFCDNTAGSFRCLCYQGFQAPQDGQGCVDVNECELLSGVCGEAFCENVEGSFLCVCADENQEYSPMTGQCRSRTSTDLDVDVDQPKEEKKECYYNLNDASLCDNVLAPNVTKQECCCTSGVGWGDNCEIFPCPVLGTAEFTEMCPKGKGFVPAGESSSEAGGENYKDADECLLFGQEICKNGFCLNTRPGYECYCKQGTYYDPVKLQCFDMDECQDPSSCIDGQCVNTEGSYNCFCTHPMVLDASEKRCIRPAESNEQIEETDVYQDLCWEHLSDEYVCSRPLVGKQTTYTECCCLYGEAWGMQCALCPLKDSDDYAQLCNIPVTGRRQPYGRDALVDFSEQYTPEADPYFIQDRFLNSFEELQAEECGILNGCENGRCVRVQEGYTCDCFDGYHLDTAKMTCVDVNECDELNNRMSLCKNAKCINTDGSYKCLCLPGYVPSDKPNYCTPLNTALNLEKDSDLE
T4 sequence (P01137 30-390 limits assumed, chain 2 of 2): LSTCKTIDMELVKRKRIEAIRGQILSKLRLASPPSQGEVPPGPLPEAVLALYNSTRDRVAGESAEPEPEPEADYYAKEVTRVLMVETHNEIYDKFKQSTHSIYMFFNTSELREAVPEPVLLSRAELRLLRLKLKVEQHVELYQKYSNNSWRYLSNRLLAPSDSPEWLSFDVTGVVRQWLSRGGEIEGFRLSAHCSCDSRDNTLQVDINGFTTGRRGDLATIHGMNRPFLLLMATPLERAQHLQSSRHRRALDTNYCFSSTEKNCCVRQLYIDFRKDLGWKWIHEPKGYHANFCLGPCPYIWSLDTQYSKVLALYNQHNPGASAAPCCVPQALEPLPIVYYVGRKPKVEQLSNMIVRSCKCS
T3 sequence (Q9NS15 44-1303 limits assumed, chain 1 of 2): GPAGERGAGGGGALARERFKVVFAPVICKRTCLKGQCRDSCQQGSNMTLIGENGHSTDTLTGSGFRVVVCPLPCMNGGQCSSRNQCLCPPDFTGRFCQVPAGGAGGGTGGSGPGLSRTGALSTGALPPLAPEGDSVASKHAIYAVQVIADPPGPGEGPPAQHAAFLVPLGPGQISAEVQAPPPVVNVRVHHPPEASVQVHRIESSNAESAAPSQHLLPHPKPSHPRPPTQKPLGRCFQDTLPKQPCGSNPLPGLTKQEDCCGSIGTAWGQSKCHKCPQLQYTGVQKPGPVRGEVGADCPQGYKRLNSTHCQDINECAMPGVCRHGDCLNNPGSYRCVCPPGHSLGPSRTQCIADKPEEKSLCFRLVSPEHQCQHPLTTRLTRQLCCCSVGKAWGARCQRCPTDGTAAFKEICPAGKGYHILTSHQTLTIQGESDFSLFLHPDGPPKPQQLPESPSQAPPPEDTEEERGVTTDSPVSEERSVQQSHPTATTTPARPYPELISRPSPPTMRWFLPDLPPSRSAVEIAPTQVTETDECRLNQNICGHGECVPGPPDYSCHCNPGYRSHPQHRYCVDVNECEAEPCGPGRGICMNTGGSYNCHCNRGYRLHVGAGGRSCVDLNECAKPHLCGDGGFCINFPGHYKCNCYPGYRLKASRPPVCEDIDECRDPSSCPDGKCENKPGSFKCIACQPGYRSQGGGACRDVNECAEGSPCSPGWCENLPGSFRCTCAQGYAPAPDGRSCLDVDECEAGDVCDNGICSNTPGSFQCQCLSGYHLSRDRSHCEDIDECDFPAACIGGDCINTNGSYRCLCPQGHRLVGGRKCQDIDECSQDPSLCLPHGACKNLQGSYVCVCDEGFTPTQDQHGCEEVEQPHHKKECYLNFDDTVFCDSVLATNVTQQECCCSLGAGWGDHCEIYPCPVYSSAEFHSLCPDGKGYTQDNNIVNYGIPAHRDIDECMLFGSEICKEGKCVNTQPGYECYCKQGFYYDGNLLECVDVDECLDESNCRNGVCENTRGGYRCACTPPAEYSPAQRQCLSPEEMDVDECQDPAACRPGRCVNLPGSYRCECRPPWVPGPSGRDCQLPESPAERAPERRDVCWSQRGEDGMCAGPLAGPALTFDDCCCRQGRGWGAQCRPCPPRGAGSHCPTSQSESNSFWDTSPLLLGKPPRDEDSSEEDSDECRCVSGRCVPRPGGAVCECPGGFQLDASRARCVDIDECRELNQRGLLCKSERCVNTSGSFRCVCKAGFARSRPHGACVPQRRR
T3 sequence (P01137 30-390 limits assumed, chain 2 of 2): as the sequence (P01137 30-390 limits assumed, chain 2 of 2) above
T2 sequence (Q86YC3 19-650 limits assumed, chain 1 of 2): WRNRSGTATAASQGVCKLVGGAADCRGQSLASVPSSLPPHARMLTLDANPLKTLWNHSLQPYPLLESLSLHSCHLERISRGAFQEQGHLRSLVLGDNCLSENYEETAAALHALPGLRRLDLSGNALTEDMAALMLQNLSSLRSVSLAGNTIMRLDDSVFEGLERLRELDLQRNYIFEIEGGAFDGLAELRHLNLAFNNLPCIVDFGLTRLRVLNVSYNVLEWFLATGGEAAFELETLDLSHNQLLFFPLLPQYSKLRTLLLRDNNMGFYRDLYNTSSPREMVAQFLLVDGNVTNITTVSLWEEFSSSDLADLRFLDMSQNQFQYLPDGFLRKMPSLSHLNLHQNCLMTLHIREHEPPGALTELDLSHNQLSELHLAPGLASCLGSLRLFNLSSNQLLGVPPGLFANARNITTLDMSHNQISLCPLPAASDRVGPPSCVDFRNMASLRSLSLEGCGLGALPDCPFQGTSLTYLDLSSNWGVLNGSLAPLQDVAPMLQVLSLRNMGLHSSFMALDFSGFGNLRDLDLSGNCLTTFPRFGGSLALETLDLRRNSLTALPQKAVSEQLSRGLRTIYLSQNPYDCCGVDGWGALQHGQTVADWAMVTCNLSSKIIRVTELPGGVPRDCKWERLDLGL
T2 sequence (P01137 30-390 limits assumed, chain 2 of 2): as the sequence (P01137 30-390 limits assumed, chain 2 of 2) above
T1 sequence (Q14392 20-627 limits assumed, chain 1 of 2): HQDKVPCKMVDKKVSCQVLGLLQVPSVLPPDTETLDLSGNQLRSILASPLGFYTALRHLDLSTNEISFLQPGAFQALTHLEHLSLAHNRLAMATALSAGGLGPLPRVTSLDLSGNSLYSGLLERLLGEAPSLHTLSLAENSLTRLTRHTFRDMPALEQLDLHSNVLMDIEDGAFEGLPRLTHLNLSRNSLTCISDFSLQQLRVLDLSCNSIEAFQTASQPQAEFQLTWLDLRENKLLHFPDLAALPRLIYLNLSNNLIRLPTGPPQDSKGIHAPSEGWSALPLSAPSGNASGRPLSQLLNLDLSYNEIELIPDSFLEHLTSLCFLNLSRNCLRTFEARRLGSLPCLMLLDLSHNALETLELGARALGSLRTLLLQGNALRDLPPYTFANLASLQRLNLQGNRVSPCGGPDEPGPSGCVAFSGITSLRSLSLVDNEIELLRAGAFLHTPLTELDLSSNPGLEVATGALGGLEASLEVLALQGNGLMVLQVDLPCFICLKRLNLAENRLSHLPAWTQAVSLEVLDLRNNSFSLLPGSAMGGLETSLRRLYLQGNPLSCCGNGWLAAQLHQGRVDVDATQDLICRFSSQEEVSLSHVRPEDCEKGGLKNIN
T1 sequence (P01137 30-390 limits assumed, chain 2 of 2): as the sequence (P01137 30-390 limits assumed, chain 2 of 2) above

B1: Ab3 (antibody, V domains shown)
VH: EVQLLESGGGLVQPGGSLRLSCAASGFTFRNYAMSWVRQAPGKGLEWVSSISGSGGATYYADSVKGRFTISRDNSKNTLYLQMNSLRAEDTAVYYCARVSSGHWDFDYWGQGTLVTVSS
VL: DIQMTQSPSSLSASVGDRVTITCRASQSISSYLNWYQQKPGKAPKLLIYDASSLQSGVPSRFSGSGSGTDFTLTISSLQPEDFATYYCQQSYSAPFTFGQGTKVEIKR
[1]
  Kd: 28 nM
[2]
  Kd: 35 nM
[3]
  Kd: 16.2 nM
[4]
  Kd: 13 nM
[5]
  IC50 (nM), cell-based potency assay, CAGA12 luciferase reporter: 0.981 nM
[6]
  IC50 (nM), cell-based potency assay, CAGA12 luciferase reporter: 0.858 nM
[7]
  IC50 (nM), cell-based potency assay, CAGA12 luciferase reporter: 10.4 nM
[8]
  IC50 (nM), cell-based potency assay, CAGA12 luciferase reporter: 24.3 nM
[9]
  Kd: 17.3 nM
[10]
  Kd: 8.52 nM
[11]
  Kd: 0.459 nM
[12]
  Kd: 0.47 nM
